Results from US20260241018A1 (BIOCYTOGEN PHARMACEUTICALS BEIJING, published 2026).

B1: 35C6 (antibody, V domains shown)
VH: QVQLVQSGGGLVQPGGSLRLSCAASGFTFSRNAMSWVRQAPGKGLEWVSAISGSGGSTHDADSVKGRFTISRDNSKNTLYLEMNSLRAEDTAVYYCAKDGYSSLWDYHYYGMDVWGQGTTVTVSS
VL: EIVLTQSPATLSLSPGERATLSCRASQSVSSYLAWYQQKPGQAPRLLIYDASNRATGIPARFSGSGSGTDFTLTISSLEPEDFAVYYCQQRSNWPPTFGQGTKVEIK
notes: also called anti-5T4 antibody 35C6
B2: 31G4 (antibody, V domains shown)
VH: QVQLVQSGGGLVQPGGSLRLSCAASGFTFKSYWMHWVRQAPGKGLEWVSRINFDGSSITYADSVKGRFTISRDNAKNTLYLQMNSLSAEDTAVYYCARPLTYYEILTGFSQYFDFWGQGTLVTVSS
VL: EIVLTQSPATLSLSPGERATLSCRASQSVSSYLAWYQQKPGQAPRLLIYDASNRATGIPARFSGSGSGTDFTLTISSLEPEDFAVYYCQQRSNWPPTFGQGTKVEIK
notes: also called anti-5T4 antibody 31G4
B3: 32G8 (antibody, V domains shown)
VH: QVQLQESGPGLLQPSETLSLTCFVSGASINSSGHYWGWIRQPPGKGLEWIGSIYFSGNTNYNPSLKSRVTIAVDTSKNQFSLKLSSVTAADTAVYYCVRRNGRYCSTISCYDDYWGQGTLVTVSS
VL: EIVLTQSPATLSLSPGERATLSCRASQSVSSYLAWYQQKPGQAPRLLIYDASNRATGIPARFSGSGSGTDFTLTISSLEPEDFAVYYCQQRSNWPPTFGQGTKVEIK
notes: also called anti-5T4 antibody 32G8
B4: 32E3 (antibody, V domains shown)
VH: QVQLVQSGGGLVQPGGSLRLSCVVSGFTVSSDYMSWVRQAPGKGLEWVSIIYSGGSTFYADSVKGRFTISRDNSKNTLFLQMNSLRAEDTAVYYCARDRDCHGWGSYYNRWFDPWGQGTLVTVSS
VL: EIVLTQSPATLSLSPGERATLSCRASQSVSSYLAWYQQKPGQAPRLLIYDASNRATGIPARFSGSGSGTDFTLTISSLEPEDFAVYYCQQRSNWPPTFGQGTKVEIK
notes: also called anti-5T4 antibody 32E3
B5: 35B12 (antibody, V domains shown)
VH: QVQLQESGPRLVKPSETLSLTCTVSGGSISSNDWSWIRQPPGKGLEWIGEISYSGITNYNPSLKSRVSISVETSKNHFSLNLSSVTAADTAVYYCATAGGSSGWYDYWFDPWGQGTLVTVSS
VL: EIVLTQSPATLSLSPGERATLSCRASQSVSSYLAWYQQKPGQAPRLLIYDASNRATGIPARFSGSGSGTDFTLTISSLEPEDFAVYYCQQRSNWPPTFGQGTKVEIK
notes: also called anti-5T4 antibody 35B12

Columns and labels:
[1] = target: T1, human 5T4 expressed on CHO-S cells (CHO-h5T4 cells) (human, UniProt Q13641 32-355); assay: flow cytometry, CHO-h5T4 cells
T1 sequence: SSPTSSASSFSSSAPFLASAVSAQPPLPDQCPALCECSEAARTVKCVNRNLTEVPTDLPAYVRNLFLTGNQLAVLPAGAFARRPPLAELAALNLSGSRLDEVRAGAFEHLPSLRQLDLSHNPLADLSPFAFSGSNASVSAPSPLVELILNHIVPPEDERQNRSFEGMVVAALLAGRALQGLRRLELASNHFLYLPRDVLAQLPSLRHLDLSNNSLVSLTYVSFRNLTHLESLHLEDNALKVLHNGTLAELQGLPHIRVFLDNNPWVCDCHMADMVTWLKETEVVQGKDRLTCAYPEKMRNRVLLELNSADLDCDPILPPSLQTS
Procedure: (§1) CHO-h5T4 cells, CHO-m5T4 cells, CHO-fas5T4 cells or CHO-d5T4 cells were transferred to a 96-well plate at a density of 2×10⁵ cells/well respectively. The anti-5T4 antibodies were added to the 96-well plate, and incubated at 4° C. for 30 min. Then, the cells were incubated with the secondary antibody anti-hlgG-Fc-Alex Flour 647 (RL1-H) (Jackson ImmunoResearch Laboratories, Inc., Cat #: 109-606-170) at 4° C. in the dark for 15 minutes before flow cytometry analysis.

[2] = target: T2, h5T4-His protein (human, UniProt Q13641 32-355, limits assumed); assay: epitope binding assay, h5T4-His captured; binder = analyte 2; competitor (analyte 1): 31G4
T2 construct: also called His-tagged human 5T4 protein; not shown: His tag
T2 sequence (looked up): T1 sequence
Procedure: (§2) Epitope binding assays were performed using ForteBio Octet system to determine whether two anti-5T4 antibodies target the same or overlapping epitopes. 1×HBS-EP+buffer (10 mM 4-(2-hydroxyethyl)-1-piperazineethanesulfonic acid (HEPES), 150 mM NaCl, 3 mM ethylenediaminetetraacetic acid (EDTA) and 0.05% P20, pH7.4) diluted from HBS-EP+buffer (10×) was used as the running buffer throughout the experiment. About 50 RU of h5T4-His protein was captured at a flow rate of 10 μL/min, and 200 nM of the tested antibody was injected at a flow rate of 30 μL/min to bind the ligand. Another comparison antibody was injected under the same conditions to determine whether the binding of different antibodies interfered with each other. The binding time was 180 s for each antibody.
(§3) The binding value of each antibody was obtained using Data Analysis HT 12.0. To quantify the interference of one antibody binding to another, a binding ratio was calculated to compare each pair of antibodies. The binding ratio is defined as the binding value of the second antibody (analyte 2), divided by the binding value of the first antibody (analyte 1). […] In general, antibody pairs that interfere with each other have the same or overlapping epitopes.

[3] = target: T2, h5T4-His protein; assay: epitope binding assay, h5T4-His captured; binder = analyte 2; competitor (analyte 1): 32E3
Procedure: as §2, §3

[4] = target: T3, dog 5T4 expressed on CHO-S cells (CHO-d5T4 cells) (dog); assay: flow cytometry, CHO-d5T4 cells
T3 chain: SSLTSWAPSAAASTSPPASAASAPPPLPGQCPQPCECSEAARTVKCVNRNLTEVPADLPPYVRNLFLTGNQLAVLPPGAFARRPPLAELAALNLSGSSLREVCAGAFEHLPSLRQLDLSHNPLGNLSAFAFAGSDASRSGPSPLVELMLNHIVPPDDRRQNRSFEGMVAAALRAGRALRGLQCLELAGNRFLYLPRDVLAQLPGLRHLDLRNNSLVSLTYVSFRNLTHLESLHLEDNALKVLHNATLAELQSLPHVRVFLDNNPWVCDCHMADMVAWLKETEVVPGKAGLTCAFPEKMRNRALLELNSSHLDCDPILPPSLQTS
Procedure: as §1

[5] = target: T4, mouse 5T4 expressed on CHO-S cells (CHO-m5T4 cells) (mouse, UniProt Q9Z0L0 32-361); assay: flow cytometry, CHO-m5T4 cells
T4 sequence: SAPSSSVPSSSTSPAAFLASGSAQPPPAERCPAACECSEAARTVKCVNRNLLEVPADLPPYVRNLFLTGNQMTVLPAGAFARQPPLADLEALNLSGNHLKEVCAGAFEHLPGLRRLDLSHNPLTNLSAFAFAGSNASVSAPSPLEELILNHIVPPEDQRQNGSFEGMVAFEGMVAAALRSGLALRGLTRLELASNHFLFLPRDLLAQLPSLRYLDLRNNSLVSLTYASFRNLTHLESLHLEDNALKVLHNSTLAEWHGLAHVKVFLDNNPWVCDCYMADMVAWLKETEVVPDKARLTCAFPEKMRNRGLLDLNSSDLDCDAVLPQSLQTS
Procedure: as §1

[6] = target: T2, h5T4-His protein; assay: epitope binding assay, h5T4-His captured; binder = analyte 2; competitor (analyte 1): 35C6
Procedure: as §2, §3

[7] = target: T5, His-tagged 5T4 protein of mouse (m5T4, ACRO Biosystems Inc., Cat #: TPG-M52H3) (mouse, UniProt Q9Z0L0 32-361, limits assumed); assay: SPR (Biacore 8K), antibody captured on Protein A chip, His-tagged 5T4 as analyte
T5 construct: Bought protein; not shown: His tag
T5 sequence (looked up): T4 sequence
Procedure: (§4) Purified anti-5T4 antibodies were diluted to 2 μg/mL and then injected into the Biacore™ 8K biosensor at 10 μL/min for about 50 seconds to achieve a desired protein density (e.g., about 50 response units (RU)). His-tagged 5T4 protein at a concentration of 200 nM was then injected at 30 μL/min for 180 seconds. Dissociation was monitored for 400 seconds. The chip was regenerated after the last injection of each titration with Glycine (pH 2.0), 30 μL/min for 30 seconds. For ISO control, an antibody targeting an irrelevant target protein was used.
(§5) As a person of ordinary skill in the art would understand, the same method with appropriate adjustments for parameters (e.g., antibody concentration) was performed for each tested antibody.

[8] = target: T6, His-tagged 5T4 protein of human (h5T4, ACRO Biosystems Inc., Cat #: TPG-H52E5) (human, UniProt Q13641 32-355); assay: as above
T6 construct: Bought protein; not shown: His tag
T6 sequence (looked up): T1 sequence
Procedure: as §4, §5

[9] = target: T2, h5T4-His protein; assay: epitope binding assay, h5T4-His captured; binder = analyte 2; competitor (analyte 1): 32G1
Procedure: as §2, §3

[10] = target: T7, monkey (Macaca fascicularis) 5T4 expressed on CHO-S cells (CHO-fas5T4 cells) (monkey (Macaca fascicularis), UniProt Q4R8Y9 35-355); assay: flow cytometry, CHO-fas5T4 cells
T7 construct: also called monkey 5T4
T7 sequence: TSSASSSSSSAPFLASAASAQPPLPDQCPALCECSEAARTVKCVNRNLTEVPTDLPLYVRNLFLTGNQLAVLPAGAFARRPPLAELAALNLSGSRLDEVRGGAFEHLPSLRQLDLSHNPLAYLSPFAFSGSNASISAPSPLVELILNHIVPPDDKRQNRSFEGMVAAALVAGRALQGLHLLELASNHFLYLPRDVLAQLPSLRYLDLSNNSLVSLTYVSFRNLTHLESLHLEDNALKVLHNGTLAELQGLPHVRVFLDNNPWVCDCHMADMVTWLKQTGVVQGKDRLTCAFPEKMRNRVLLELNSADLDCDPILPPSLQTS
Procedure: as §1

[11] = target: T2, h5T4-His protein; assay: epitope binding assay, h5T4-His captured; binder = analyte 2; competitor (analyte 1): 32G8
Procedure: as §2, §3

[12] = target: T2, h5T4-His protein; assay: epitope binding assay, h5T4-His captured; binder = analyte 2; competitor (analyte 1): 35B12
Procedure: as §2, §3

[13] = target: T8, His-tagged 5T4 protein of monkey (fas5T4, ACRO Biosystems Inc., Cat #: TPG-C52H3) (monkey, UniProt Q4R8Y9 35-355); assay: SPR (Biacore 8K), antibody captured on Protein A chip, His-tagged 5T4 as analyte
T8 construct: Bought protein
T8 sequence: T7 sequence
Procedure: as §4, §5

Binder | Percentage of Positive Cells [1] [%] | binding ratio [2] | binding ratio [3] | Percentage of Positive Cells [4] [%] | Percentage of Positive Cells [5] [%] | binding ratio [6] | Kd [7] [nM] | koff [7] [s⁻¹] | kon [7] [M⁻¹ s⁻¹] | Kd [8] [nM] | koff [8] [s⁻¹] | kon [8] [M⁻¹ s⁻¹] | binding ratio [9] | Percentage of Positive Cells [10] [%] | binding ratio [11] | binding ratio [12] | binding result [5] | Kd [13] [nM] | koff [13] [s⁻¹] | kon [13] [M⁻¹ s⁻¹] | also measured
B1 | 67.3 | 0.81 | 0.93 | 71.1 | 63.3 | 0.02 | 1.31 | 0.000407 | 310000 | 19.2 | 0.00315 | 164000 | 0.96 | 55.7 | 0.98 | 0.03 | – | – | – | – | –
B2 | 79.3 | 0.04 | 1.01 | 1.1 | 1.4 | 1.05 | – | – | – | 2.68 | 0.000397 | 148000 | 1.04 | 58.8 | 1.01 | 1.01 | no binding | 10.1 | 0.00101 | 100000 | binding result [4]: no binding; binding result [7]: no binding (tested: 200 nM)
B3 | 61.5 | 0.85 | 0.04 | 62.8 | 0.7 | 1.01 | – | – | – | 42.7 | 0.00529 | 124000 | 1.01 | 52.6 | 0.11 | 0.96 | no binding | 146 | 0.0143 | 98000 | binding result [7]: no binding (tested: 200 nM)
B4 | 65.8 | 0.8 | -0.01 | 53.7 | 52.2 | 0.96 | – | – | – | 147 | 0.00661 | 44900 | 0.83 | 51.5 | -0.06 | 0.97 | – | 116 | 0.00297 | 25600 | –
B5 | 78 | 0.87 | 0.97 | 76 | 54.1 | 0.04 | 72.2 | 0.00366 | 50700 | 122 | 0.0215 | 176000 | 0.05 | 52.1 | 0.91 | 0 | – | 198 | 0.0219 | 111000 | –
